Data: US20230233632A1 (MYCOMAGIC BIOTECHNOLOGY, published 2023)

Target: T1, ACE2 tested for a complex with GMI by immunoprecipitation (human, UniProt Q9BYF1 18-805)
T1 construct: also called hACE2; angiotensin converting enzyme 2
Experiment: immunoprecipitation

T1 sequence (Q9BYF1 18-805 limits assumed, one chain of several): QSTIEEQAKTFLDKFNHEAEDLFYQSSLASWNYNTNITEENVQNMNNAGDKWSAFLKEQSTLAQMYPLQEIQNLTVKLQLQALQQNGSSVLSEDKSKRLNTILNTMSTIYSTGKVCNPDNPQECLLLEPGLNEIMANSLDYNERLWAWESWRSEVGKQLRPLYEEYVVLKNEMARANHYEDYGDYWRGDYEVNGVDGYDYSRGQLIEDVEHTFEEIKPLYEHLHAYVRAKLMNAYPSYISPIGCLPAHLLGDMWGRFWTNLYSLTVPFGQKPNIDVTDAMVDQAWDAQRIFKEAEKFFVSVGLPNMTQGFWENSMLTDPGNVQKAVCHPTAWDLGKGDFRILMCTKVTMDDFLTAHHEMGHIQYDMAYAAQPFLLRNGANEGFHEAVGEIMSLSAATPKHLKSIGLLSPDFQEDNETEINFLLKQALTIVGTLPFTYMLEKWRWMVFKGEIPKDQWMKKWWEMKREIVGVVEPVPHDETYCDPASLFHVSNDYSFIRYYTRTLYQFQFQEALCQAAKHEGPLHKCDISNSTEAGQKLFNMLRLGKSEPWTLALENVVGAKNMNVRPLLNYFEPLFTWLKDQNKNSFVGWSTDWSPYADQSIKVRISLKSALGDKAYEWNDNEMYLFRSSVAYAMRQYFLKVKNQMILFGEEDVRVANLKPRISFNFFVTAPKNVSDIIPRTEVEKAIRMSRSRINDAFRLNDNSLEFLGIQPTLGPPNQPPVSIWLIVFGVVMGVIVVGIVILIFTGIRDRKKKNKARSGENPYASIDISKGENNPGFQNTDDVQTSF

B1: Ganoderma immunomodulatory protein (GMI) from Ganoderma microsporum (other)
chain: MSDTALIFTLAWNVKQLAFDYTPNWGRGRPSSFIDTVTFPTVLTDKAYTYRVVVSGKDLGVRPSYAVESDGSQKINFLEYNSGYGIADTNTIQVYVIDPDTGNNFIVAQWN
notes: also called His tagged-GMI; fungal immunomodulatory protein (FIP)
B1: no binding.
